Test results from US20030125257.

Target: 19 peptidomimetic BACE inhibitors

B1: purified full-length human BACE with six C-terminal His residues, expressed in Sf9 insect cells (protein)
chain: ETDEEPEEPGRRGSFVEMVDNLRGKSGQGYYVEMTVGSPPQTLNILVDTGSSNFAVGAAPHPFLHRYYQRQLSSTYRDLRKGVYVPYTQGKWEGELGTDLVSIPHGPNVTVRANIAAITESDKFFINGSNWEGILGLAYAEIARPDDSLEPFFDSLVKQTHVPNLFSLQLCGAGFPLNQSEVLASVGGSMIIGGIDHSLYTGSLWYTPIRREWYYEVIIVRVEINGQDLKMDCKEYNYDKSIVDSGTTNLRLPKKVFEAAVKSIKAASSTEKFPDGFWLGEQLVCWQAGTTPWNIFPVISLYLMGEVTNQSFRITILPQQYLRPVEDVATSQDDCYKFAISQSSTGTVMGAVIMEGFYVVFDRARKRIGFAVSACHVHDEFRTAAVEGPFVTLDMEDCGYNIPQTDESTLMTIAYVMAAICALFMLPLCLMVCQWRCLRCLRQQHDDFADDISLLKHHHHHH
FRET assay (proteolytic activity of beta-secretase): test compounds inhibiting the binding of a tagged beta-secretase to beta-secretase also inhibit the proteolytic activity of beta-secretase leading to production of A-beta over a broad range of IC-50 values
